# Source: patent US20240376151A1, “STAPLED PEPTIDES AND METHODS THEREOF” (FOG PHARMACEUTICALS, INC., priority 2022, published 2024)
# Numbered stars: 1 amine (or outer) side, 2 acyl side, 3 side chain; on linkers, the order of the positions; unused ones are H or OH. Bridge positions count the residues as written; N and C are the ends. Ends that are not written are not given here. Phenylene(1,4-NHCOCH2)2 = O=C(C[*:1])Nc1ccc(NC(=O)C[*:2])cc1
# Key:
# MDM2 = target: T1, MDM2 (Homo sapiens, UniProt Q00987); experiment: Naive Library Presenter Screening (phage, NGS), MDM2; assay type: binding; conditions: for interaction data, BLANK: Blank = Media only
# T1 construct: made in house
# T1 sequence (Q00987 25-109): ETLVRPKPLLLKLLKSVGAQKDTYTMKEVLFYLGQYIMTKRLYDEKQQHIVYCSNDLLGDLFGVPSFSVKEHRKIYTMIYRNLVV
# CHIP = target: T2, CHIP (Homo sapiens, UniProt Q9UNE7); experiment: Naive Library Presenter Screening (phage, NGS), CHIP; assay type: binding; conditions: for interaction data at Target Concentration 10: CHIP target concentration 10 nM; for interaction data at Target Concentration 30: CHIP target concentration 30 nM; for interaction data at Target Concentration 100: CHIP target concentration 100 nM; for interaction data at Target Concentration 300: CHIP target concentration 300 nM; for interaction data at Target Concentration 1000: CHIP target concentration 1000 nM
# T2 construct: N-term truncated CHIP (also known as STUB1, Uniprot ID: Q9UNE7, residues 23-303); made in house; host or cells: E. coli BL21 CodonPlus
# T2 sequence (Q9UNE7 23-303): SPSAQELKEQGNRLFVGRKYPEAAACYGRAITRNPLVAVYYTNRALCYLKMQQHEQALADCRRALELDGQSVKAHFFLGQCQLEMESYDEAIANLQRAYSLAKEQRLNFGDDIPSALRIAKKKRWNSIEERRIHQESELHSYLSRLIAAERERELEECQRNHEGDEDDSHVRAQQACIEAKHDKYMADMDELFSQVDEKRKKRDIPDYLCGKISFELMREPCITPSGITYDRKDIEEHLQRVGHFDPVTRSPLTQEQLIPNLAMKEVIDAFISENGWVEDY
# Method: To conduct phage library screening, previously described procedures were utilized in accordance with the present disclosure.
# Next-generation sequencing was performed as described in accordance with the present disclosure.
# Hit ID and Clustering is performed according to a described procedure in accordance with the present disclosure.
# [1] = MDM2 clusters (C82, C85), first column
# [2] = MDM2 clusters (C82, C85), second column
# [3] = MDM2 clusters (C82, C85), target concentration 10 nM
# [4] = MDM2 clusters (C82, C85), target concentration 30 nM
# [5] = MDM2 clusters (C82, C85), target concentration 100 nM
# [6] = MDM2 clusters (C82, C85), target concentration 300 nM
# [7] = MDM2 clusters (C82, C85), target concentration 1000 nM, first column
# [8] = MDM2 clusters (C82, C85), target concentration 1000 nM, second column
# [9] = MDM2 target concentration 10 nM
# [10] = MDM2 target concentration 30 nM
# [11] = MDM2 target concentration 100 nM
# [12] = MDM2 target concentration 300 nM
# [13] = MDM2 target concentration 1000 nM, first column
# [14] = MDM2 target concentration 1000 nM, second column
Sequence,"interaction data, BLANK (MDM2; [1])","interaction data, BLANK (MDM2; [2])",interaction data at Target Concentration 10 (MDM2; [3]),interaction data at Target Concentration 30 (MDM2; [4]),interaction data at Target Concentration 100 (MDM2; [5]),interaction data at Target Concentration 300 (MDM2; [6]),interaction data at Target Concentration 1000 (MDM2; [7]),interaction data at Target Concentration 1000 (MDM2; [8]),interaction data at Target Concentration 10 (CHIP),interaction data at Target Concentration 30 (CHIP),interaction data at Target Concentration 100 (CHIP),interaction data at Target Concentration 300 (CHIP),interaction data at Target Concentration 1000 (CHIP; first column),interaction data at Target Concentration 1000 (CHIP; second column),also measured
"DPAAQECFRAAWRCMQD (linker 7-14 via Phenylene(1,4-NHCOCH2)2 (inferred))",0,0,0,0,25,37,34,29,–,–,–,–,–,–,–
"DPAAVQCNTAAFQCYWF (linker 7-14 via Phenylene(1,4-NHCOCH2)2 (inferred))",0,0,0,0,23,56,53,69,–,–,–,–,–,–,–
"DPADIVCQDAAFQCFWW (linker 7-14 via Phenylene(1,4-NHCOCH2)2 (inferred))",0,0,0,1,12,33,46,18,–,–,–,–,–,–,–
"DPADNRCFQAAWDCAFW (linker 7-14 via Phenylene(1,4-NHCOCH2)2 (inferred))",–,–,–,–,–,–,–,–,–,–,–,–,–,–,interaction data at Target Concentration 10 (MDM2; [9]): 1; interaction data at Target Concentration 30 (MDM2; [10]): 0; interaction data at Target Concentration 100 (MDM2; [11]): 51; interaction data at Target Concentration 300 (MDM2; [12]): 22; interaction data at Target Concentration 1000 (MDM2; [13]): 20; interaction data at Target Concentration 1000 (MDM2; [14]): 23
"DPADRDCFSAAWACVIR (linker 7-14 via Phenylene(1,4-NHCOCH2)2 (inferred))",0,0,0,37,188,209,160,215,–,–,–,–,–,–,–
"DPADSECFQAASDCQYW (linker 7-14 via Phenylene(1,4-NHCOCH2)2 (inferred))",–,–,–,–,–,–,–,–,–,–,–,–,–,–,interaction data at Target Concentration 10 (MDM2; [9]): 7; interaction data at Target Concentration 30 (MDM2; [10]): 11; interaction data at Target Concentration 100 (MDM2; [11]): 0; interaction data at Target Concentration 300 (MDM2; [12]): 0; interaction data at Target Concentration 1000 (MDM2; [13]): 5; interaction data at Target Concentration 1000 (MDM2; [14]): 6
"DPAENECFTAAWDCMFF (linker 7-14 via Phenylene(1,4-NHCOCH2)2 (inferred))",–,–,–,–,–,–,–,–,–,–,–,–,–,–,interaction data at Target Concentration 10 (MDM2; [9]): 0; interaction data at Target Concentration 30 (MDM2; [10]): 0; interaction data at Target Concentration 100 (MDM2; [11]): 7; interaction data at Target Concentration 300 (MDM2; [12]): 51; interaction data at Target Concentration 1000 (MDM2; [13]): 70; interaction data at Target Concentration 1000 (MDM2; [14]): 40
"DPAERNCFTAAWQCMVW (linker 7-14 via Phenylene(1,4-NHCOCH2)2 (inferred))",0,0,0,23,158,230,135,–,–,–,–,–,–,–,–
"DPAETDCSQAAFWCYWQ (linker 7-14 via Phenylene(1,4-NHCOCH2)2 (inferred))",0,0,1,15,170,133,176,188,–,–,–,–,–,–,–
"DPAFDSCFSAAWDCMYW (linker 7-14 via Phenylene(1,4-NHCOCH2)2 (inferred))",–,–,–,–,–,–,–,–,–,–,–,–,–,–,interaction data at Target Concentration 10 (MDM2; [9]): 3; interaction data at Target Concentration 30 (MDM2; [10]): 0; interaction data at Target Concentration 100 (MDM2; [11]): 27; interaction data at Target Concentration 300 (MDM2; [12]): 92; interaction data at Target Concentration 1000 (MDM2; [13]): 65; interaction data at Target Concentration 1000 (MDM2; [14]): 84
"DPAHNLCFDAAWWCHWQ (linker 7-14 via Phenylene(1,4-NHCOCH2)2 (inferred))",0,0,0,0,9,7,8,11,–,–,–,–,–,–,–
"DPAHQQCFMAAWRCVVH (linker 7-14 via Phenylene(1,4-NHCOCH2)2 (inferred))",0,0,1,48,230,375,356,327,–,–,–,–,–,–,–
"PCWNAWLYCSN (linker 2-9 via Phenylene(1,4-NHCOCH2)2 (inferred))",–,–,–,–,–,–,–,–,0,0,11,105,155,58,–
"PCWNAWMVCSV (linker 2-9 via Phenylene(1,4-NHCOCH2)2 (inferred))",–,–,–,–,–,–,–,–,2,44,334,474,690,691,–
"PCWSAWLACEL (linker 2-9 via Phenylene(1,4-NHCOCH2)2 (inferred))",–,–,–,–,–,–,–,–,0,81,72,130,220,206,–
"PCYSAWITCES (linker 2-9 via Phenylene(1,4-NHCOCH2)2 (inferred))",–,–,–,–,–,–,–,–,0,134,286,457,563,538,–
"PCYSAWIVCSD (linker 2-9 via Phenylene(1,4-NHCOCH2)2 (inferred))",–,–,–,–,–,–,–,–,4,81,123,444,549,468,–
"PMCSDAWLFCE (linker 3-10 via Phenylene(1,4-NHCOCH2)2 (inferred))",–,–,–,–,–,–,–,–,0,0,0,74,143,57,–
